Assay results published in patent publication US20240092916A1 (Astellas, published 2024).

How the values were obtained:
Experiment in all cases: ELISA, antigen immobilized at 1 µg/mL, detection with anti-human kappa-HRP
[1] = biological target: T1, ActRIIB-His (LifeSpan Biosciences, LS-G38834) (Homo sapiens (Human), UniProt Q13705 19-137)
T1 construct: Bought reagent
T1 sequence: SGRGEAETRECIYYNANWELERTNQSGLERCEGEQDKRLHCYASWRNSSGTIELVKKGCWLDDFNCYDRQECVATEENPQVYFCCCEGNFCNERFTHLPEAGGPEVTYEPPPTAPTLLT
Protocol: (§1) The binding activities of the humanized 75E9STF8-1 obtained in Example 4 to ActRIIA, ActRIIB, and Fn14 were evaluated. ActRIIA-His (LifeSpan Biosciences, LS-G39063), ActRIIB-His (LifeSpan Biosciences, LS-G38834), and the human Fc fusion proteins including the extracellular domain of human Fn14 prepared in Example 3 were each diluted to 1 μg/mL with phosphate-buffered physiological saline (PBS), each added to a Maxisorp 384-well transparent plate (Nunc, 464718) at 15 μL/well, and incubated at 4° C. overnight for immobilization. On the next day, the solid phase liquid was removed and washing was performed with a 0.05% Tween-20-containing Tris-buffered physiological saline (TBS-T). Thereafter, PBS including 20% Blocking One (Nacalai tesque, Inc., 03953-95) was added thereto at 50 μL/well, and the mixture was left to stand at room temperature for 1 hour and then washed with TBS-T. Dilution series of humanized 75E9STF8-1 were prepared by dilution in 12 steps at a 4-fold common ratio from the maximum concentration of 30 μg/mL, and added at 20 μL/well. TBS-T including 5% Blocking One was used as a diluent. After incubation for 1 hour at room temperature, washing was performed with TBS-T. As a detection antibody, Goat Anti-Human Kappa, Mouse ads-HRP (SouthernBiotech, 2061-05) which had been 4,000-fold diluted with a diluent (TBS-T including 5% Blocking One) was added at 20 μL/well. After incubating at room temperature for 1.5 hours, the cells were washed with TBS-T, TMB+Substrate-Chromogen (DAKO, S159985) was added thereto, the mixture was left to stand, 1 M sulfuric acid was added thereto to stop the reaction, and the absorbance at 450 nm was measured with Infinite (registered trademark) 200 Pro (TECAN).

[2] = biological target: T2, human Fc fusion protein including the extracellular domain of human Fn14 (human, UniProt Q9NP84 28-80)
T2 construct: extracellular domain; not shown: human Fc
T2 sequence (looked up): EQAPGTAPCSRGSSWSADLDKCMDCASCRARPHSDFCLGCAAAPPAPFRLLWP
Protocol: as §1

[3] = biological target: T3, ActRIIA-His (LifeSpan Biosciences, LS-G39063) (Homo sapiens (Human), UniProt P27037 20-135)
T3 construct: Bought reagent
Protocol: as §1

T3 sequence (P27037 20-135 limits assumed, form in doubt, one chain of several): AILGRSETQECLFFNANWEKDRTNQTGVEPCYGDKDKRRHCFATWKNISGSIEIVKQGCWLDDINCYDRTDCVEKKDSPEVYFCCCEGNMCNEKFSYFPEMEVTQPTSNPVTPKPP

EC50 [1]: 9.24 ng/mL | EC50 [2]: 23.3 ng/mL | EC50 [3]: 5.03 ng/mL
B1: humanized 75E9STF8-1 (bispecific antibody, human IgG1, kappa, L234A L235A)
heavy: EVQLVESGGGLVQPGGSLRLSCAASRSIFAYGTMAWYRQAPGKGRELVATISGGGTTSYSDSVKGRFTISRDNGKSTVYLQMNSLRAEDTAVYYCNKRSIGTNDFWGQGTLVTVSSGGGGSGGGGSGGGGSGGGGSGGGGSEVQLVESGGGLVQPGGSLRLSCAASGFTLTTNALIWGRQAPGAAPGKGPEWVAGIRADGRPYYGDSMKGRVTISRDIAKNTAYLQMNSLRPEDTAVYFCATRLDDSGTYDRGRGTTVTVSSGGGGSGGGGSEVQLVESGGGLVKPGGSLRLSCAASGITFSTYGMNWVRQAPGKGLEWVSSISSRSIHISYADSVKGRFTISRDNAKNSLYLQMSSLRADDTAVYYCARDRGAAAFDYWGRGTLVAVSSASTKGPSVFPLAPSSKSTSGGTAALGCLVKDYFPEPVTVSWNSGALTSGVHTFPAVLQSSGLYSLSSVVTVPSSSLGTQTYICNVNHKPSNTKVDKKVEPKSCDKTHTCPPCPAPEAAGGPSVFLFPPKPKDTLYITREPEVTCVVVDVSHEDPEVKFNWYVDGVEVHNAKTKPREEQYNSTYRVVSVLTVLHQDWLNGKEYKCKVSNKALPAPIEKTISKAKGQPREPQVYTLPPSRDELTKNQVSLTCLVKGFYPSDIAVEWESNGQPENNYKTTPPVLDSDGSFFLYSKLTVDKSRWQQGNVFSCSVMHEALHNHYTQKSLSLSPGK
light: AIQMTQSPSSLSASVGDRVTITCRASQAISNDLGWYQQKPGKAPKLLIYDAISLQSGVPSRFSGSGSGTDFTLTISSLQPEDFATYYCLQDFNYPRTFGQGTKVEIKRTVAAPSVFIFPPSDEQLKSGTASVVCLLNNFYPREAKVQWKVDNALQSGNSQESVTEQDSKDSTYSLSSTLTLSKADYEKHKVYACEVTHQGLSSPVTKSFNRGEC
notes: Expressed in CHO-K1SV cells
